Measurements reported in patent EP4814014A1, “BINDING MOLECULE AND ANTIBODY-DRUG CONJUGATE AND USE THEREOF” (priority 2023, dated 2025).
Residue numbers refer to the chain shown, from its start.

B1: zn10A1.m6 (VHH, not shown: small tags and cut ends)
VHH: QVQLVESGGGLVQPGGSLRLSCAASGRTGSLHAMGWFRQAPGKERERVATLNLSDGSAVTADSVKGRFTISTDNSKNSVYLQMNSLRAEDTAVYYCTASRSPSGIRYYKPDYWGQGTLVTVSS
B2: pn10A1.m3 (VHH, not shown: small tags and cut ends)
VHH: B1 VHH with P14A, N52Q, S54T, S75T, R87K, A88P, L118Q
B3: pn10A1.m1 (VHH, not shown: small tags and cut ends)
VHH: B1 VHH with P14A, N52Q, S75T, R87K, A88P, L118Q
B4: pn10A1.m2 (VHH, not shown: small tags and cut ends)
VHH: B1 VHH with P14A, S54A, S75T, R87K, A88P, L118Q
B5: pn10A1.m5 (VHH, not shown: small tags and cut ends)
VHH: B1 VHH with P14A, G56V, S75T, R87K, A88P, L118Q
B6: pn10A1.m4 (VHH, not shown: small tags and cut ends)
VHH: B1 VHH with P14A, D55E, S75T, R87K, A88P, L118Q
B7: pn10A1.m6 (VHH, not shown: small tags and cut ends)
VHH: B1 VHH with P14A, G56A, S75T, R87K, A88P, L118Q
B8: zn5B10.m18 (VHH, not shown: small tags and cut ends)
VHH: EVQLVESGGGLVQPGGSLRLSCSASGTIIGTYTMAWYRQAPGKQREMVAIITPGGGSHHADSVKGRFTISRDNSKSTVYLQMSSLRAEDTAVYYCNAKARWGTTEYWGQGTLVTVSS
notes: Humanized anti-EGFR VHH-His
B9: zn5B10.m23 (VHH, not shown: small tags and cut ends)
VHH: B8 VHH with S21D, A87F
notes: Humanized anti-EGFR VHH-His
B10: zn5B10.m22 (VHH, not shown: small tags and cut ends)
VHH: B8 VHH with S76N, V78L, A87F
notes: Humanized anti-EGFR VHH-His
B11: zn5B10.m16 (VHH, not shown: small tags and cut ends)
VHH: B8 VHH with S23A, S76N, V78L, S83N, L112M
notes: Humanized anti-EGFR VHH-His
B12: zn5B10.m20 (VHH, not shown: small tags and cut ends)
VHH: B8 VHH with S76N, V78L
notes: Humanized anti-EGFR VHH-His; also called hu5B10
B13: zn5B10.m17 (VHH, not shown: small tags and cut ends)
VHH: B8 VHH with S23A, S76N, S83N, L112M
notes: Humanized anti-EGFR VHH-His
B14: zn5B10.m21 (VHH, not shown: small tags and cut ends)
VHH: B8 VHH with S74G, S76N, V78L
notes: Humanized anti-EGFR VHH-His
B15: zn10A1.m5 (VHH, not shown: small tags and cut ends)
VHH: QVQLVQSGPEVKKPGTSVKVSCKASGRTGSLHAMGWFRQARGQERERVATLNLSDGSAVTADSVKGRFTITTDNSKNSVYMELSSLRSEDTAVYYCTASRSPSGIRYYKPDYWGQGTMVTVSS
B16: V-n9B8 anti-EGFR VHH-His (VHH, not shown: small tags and cut ends)
VHH: QVQLVESGGGLVQPGGSLRLSCAASGLTFSYYAMAWFRQAPGKEREFVAAINWNGGNTYNTDSVKGRFTISRDNAKNTVYLQMNSLKPEDTAVYYCAVRYNSASYLVARSSDYNYWGQGTLVTVSS
notes: Monovalent parent VHH
B17: zn9B8.m4 (VHH, not shown: small tags and cut ends)
VHH: B16 VHH with Q1E, V5L, A75S, K87R, P88S
notes: Humanized anti-EGFR VHH-His
B18: V-13 (10A1-9A2-7A12) (bispecific antibody)
chain: QVQLVESGGGLVQAGGSLRLSCAASGRTGSLHAMGWFRQAPGKERERVATLNLSDGSAVTADSVKGRFTISTDNTKNSVYLQMNSLKPEDTAVYYCTASRSPSGIRYYKPDYWGQGTQVTVSSGGGGSQSQLAESGGGLVQSGGSLGLSCVASGFTISRSIMSWYRQPPGKERDWVASIGSAGNTNYVDSVKGRFTISRDVAKNTVYLQMNSLKPEDTAVYYCKTTLAVSFSEYWGQGTQVTVSSGGGGSGGGGSEVQLVESGGGLVQAGGSLRLSCVASGNIFSSNHMGWFRQAPGKQREFIAYITTREITNYADSVKGRFTISRDNTKNTVYLQMNVLKPEDTAVYYCIADQSREIRRSWGQGTQVTVSS
notes: Single-chain trispecific anti-EGFR/cMet antibody
B19: V-15 (10A1-7A12-9A2) (bispecific antibody)
chain: QVQLVESGGGLVQAGGSLRLSCAASGRTGSLHAMGWFRQAPGKERERVATLNLSDGSAVTADSVKGRFTISTDNTKNSVYLQMNSLKPEDTAVYYCTASRSPSGIRYYKPDYWGQGTQVTVSSGGGGSEVQLVESGGGLVQAGGSLRLSCVASGNIFSSNHMGWFRQAPGKQREFIAYITTREITNYADSVKGRFTISRDNTKNTVYLQMNVLKPEDTAVYYCIADQSREIRRSWGQGTQVTVSSGGGGSGGGGSQSQLAESGGGLVQSGGSLGLSCVASGFTISRSIMSWYRQPPGKERDWVASIGSAGNTNYVDSVKGRFTISRDVAKNTVYLQMNSLKPEDTAVYYCKTTLAVSFSEYWGQGTQVTVSS
notes: as for B18
B20: V-1 (5B10-9A2-7A12) (bispecific antibody)
chain: AVQLVDSGGGLVQPGGSLRLDCSASGTIIGTYTMAWYRQAPGKQREMVAIITPGGGSHHADSVKGRFTISRDNGKSTVYLQMSSLKFEDTAVYYCNAKARWGTTEYWGQGTQVTVSSGGGGSQSQLAESGGGLVQSGGSLGLSCVASGFTISRSIMSWYRQPPGKERDWVASIGSAGNTNYVDSVKGRFTISRDVAKNTVYLQMNSLKPEDTAVYYCKTTLAVSFSEYWGQGTQVTVSSGGGGSGGGGSEVQLVESGGGLVQAGGSLRLSCVASGNIFSSNHMGWFRQAPGKQREFIAYITTREITNYADSVKGRFTISRDNTKNTVYLQMNVLKPEDTAVYYCIADQSREIRRSWGQGTQVTVSS
notes: as for B18
B21: V-3 (5B10-7A12-9A2) (bispecific antibody)
chain: AVQLVDSGGGLVQPGGSLRLDCSASGTIIGTYTMAWYRQAPGKQREMVAIITPGGGSHHADSVKGRFTISRDNGKSTVYLQMSSLKFEDTAVYYCNAKARWGTTEYWGQGTQVTVSSGGGGSEVQLVESGGGLVQAGGSLRLSCVASGNIFSSNHMGWFRQAPGKQREFIAYITTREITNYADSVKGRFTISRDNTKNTVYLQMNVLKPEDTAVYYCIADQSREIRRSWGQGTQVTVSSGGGGSGGGGSQSQLAESGGGLVQSGGSLGLSCVASGFTISRSIMSWYRQPPGKERDWVASIGSAGNTNYVDSVKGRFTISRDVAKNTVYLQMNSLKPEDTAVYYCKTTLAVSFSEYWGQGTQVTVSS
notes: as for B18
B22: V-7 (9B8-9A2-7A12) (bispecific antibody)
chain: QVQLVESGGGLVQPGGSLRLSCAASGLTFSYYAMAWFRQAPGKEREFVAAINWNGGNTYNTDSVKGRFTISRDNAKNTVYLQMNSLKPEDTAVYYCAVRYNSASYLVARSSDYNYWGQGTLVTVSSGGGGSQSQLAESGGGLVQSGGSLGLSCVASGFTISRSIMSWYRQPPGKERDWVASIGSAGNTNYVDSVKGRFTISRDVAKNTVYLQMNSLKPEDTAVYYCKTTLAVSFSEYWGQGTQVTVSSGGGGSGGGGSEVQLVESGGGLVQAGGSLRLSCVASGNIFSSNHMGWFRQAPGKQREFIAYITTREITNYADSVKGRFTISRDNTKNTVYLQMNVLKPEDTAVYYCIADQSREIRRSWGQGTQVTVSS
notes: as for B18
B23: V-9 (9B8-7A12-9A2) (bispecific antibody)
chain: QVQLVESGGGLVQPGGSLRLSCAASGLTFSYYAMAWFRQAPGKEREFVAAINWNGGNTYNTDSVKGRFTISRDNAKNTVYLQMNSLKPEDTAVYYCAVRYNSASYLVARSSDYNYWGQGTLVTVSSGGGGSEVQLVESGGGLVQAGGSLRLSCVASGNIFSSNHMGWFRQAPGKQREFIAYITTREITNYADSVKGRFTISRDNTKNTVYLQMNVLKPEDTAVYYCIADQSREIRRSWGQGTQVTVSSGGGGSGGGGSQSQLAESGGGLVQSGGSLGLSCVASGFTISRSIMSWYRQPPGKERDWVASIGSAGNTNYVDSVKGRFTISRDVAKNTVYLQMNSLKPEDTAVYYCKTTLAVSFSEYWGQGTQVTVSS
notes: as for B18

What follows are binders tested against T1, human EGFR on cells (human, UniProt P00533 25-1210) (assay: FACS, VHH-His on MDA-MB-468 cells).
T1 construct: whole, on cells; the cell line is named under assay; also called CHO-S-EGFR; CHOK1-huEGFR

Maximum MFI value	EC50	Binder
9680 MFI		B1
5480 MFI		B2
10300 MFI		B3
3770 MFI		B4
27400 MFI		B5
5260 MFI		B6
5790 MFI		B7
71100 MFI	1.3 nM	B8
74200 MFI	1.94 nM	B9
86900 MFI	1.15 nM	B10
76800 MFI	3.13 nM	B11
59200 MFI	0.219 nM	B12
93600 MFI	23.2 nM	B13
58700 MFI	0.429 nM	B14
3480 MFI		B15
94600 MFI	2.04 nM	B16
57100 MFI	1.43 nM	B17

These binders were tested against T2, human EGFR-his (ECD, Met1-Ser645) (human, UniProt P00533 25-645) (assay: SPR, antigen amine-coupled on GLM chip, antibody injected, 1:1 model).
T2 construct: range 1-645; Bought; range as printed includes Met1

Kd	koff	kon	Binder
48.9 nM	0.0135 s⁻¹	276000 M⁻¹ s⁻¹	B18
28.3 nM	0.00943 s⁻¹	334000 M⁻¹ s⁻¹	B19
31.7 nM	0.00354 s⁻¹	112000 M⁻¹ s⁻¹	B20
25.1 nM	0.003 s⁻¹	119000 M⁻¹ s⁻¹	B21
0.0128 nM	1.17e-06 s⁻¹	91600 M⁻¹ s⁻¹	B22
0.0027 nM	2.35e-07 s⁻¹	86900 M⁻¹ s⁻¹	B23

The binders below were run against T3, cynomolgus monkey EGFR-his (ECD, Met1-Ser645) (cynomolgus monkey, UniProt A0A2K5WK39 1-645) in the same assay as above.
T3 construct: range 1-645; Bought; range as printed includes Met1

Kd	koff	kon	Binder
37.4 nM	0.0162 s⁻¹	433000 M⁻¹ s⁻¹	B18
22.8 nM	0.00764 s⁻¹	335000 M⁻¹ s⁻¹	B19
27.8 nM	0.00206 s⁻¹	74100 M⁻¹ s⁻¹	B20
21.8 nM	0.00246 s⁻¹	112000 M⁻¹ s⁻¹	B21
0.00135 nM	1.25e-07 s⁻¹	93200 M⁻¹ s⁻¹	B22
0.0255 nM	1.95e-06 s⁻¹	76400 M⁻¹ s⁻¹	B23

The binders below were run against T4, cynomolgus monkey cMet-his (ECD, Met1-Thr932) (cynomolgus monkey, UniProt A0A2K5UM36 25-932) in the same assay as above.
T4 construct: Bought; range as printed includes Met1
T4 sequence (A0A2K5UM36 entry or part of it limits assumed, form in doubt): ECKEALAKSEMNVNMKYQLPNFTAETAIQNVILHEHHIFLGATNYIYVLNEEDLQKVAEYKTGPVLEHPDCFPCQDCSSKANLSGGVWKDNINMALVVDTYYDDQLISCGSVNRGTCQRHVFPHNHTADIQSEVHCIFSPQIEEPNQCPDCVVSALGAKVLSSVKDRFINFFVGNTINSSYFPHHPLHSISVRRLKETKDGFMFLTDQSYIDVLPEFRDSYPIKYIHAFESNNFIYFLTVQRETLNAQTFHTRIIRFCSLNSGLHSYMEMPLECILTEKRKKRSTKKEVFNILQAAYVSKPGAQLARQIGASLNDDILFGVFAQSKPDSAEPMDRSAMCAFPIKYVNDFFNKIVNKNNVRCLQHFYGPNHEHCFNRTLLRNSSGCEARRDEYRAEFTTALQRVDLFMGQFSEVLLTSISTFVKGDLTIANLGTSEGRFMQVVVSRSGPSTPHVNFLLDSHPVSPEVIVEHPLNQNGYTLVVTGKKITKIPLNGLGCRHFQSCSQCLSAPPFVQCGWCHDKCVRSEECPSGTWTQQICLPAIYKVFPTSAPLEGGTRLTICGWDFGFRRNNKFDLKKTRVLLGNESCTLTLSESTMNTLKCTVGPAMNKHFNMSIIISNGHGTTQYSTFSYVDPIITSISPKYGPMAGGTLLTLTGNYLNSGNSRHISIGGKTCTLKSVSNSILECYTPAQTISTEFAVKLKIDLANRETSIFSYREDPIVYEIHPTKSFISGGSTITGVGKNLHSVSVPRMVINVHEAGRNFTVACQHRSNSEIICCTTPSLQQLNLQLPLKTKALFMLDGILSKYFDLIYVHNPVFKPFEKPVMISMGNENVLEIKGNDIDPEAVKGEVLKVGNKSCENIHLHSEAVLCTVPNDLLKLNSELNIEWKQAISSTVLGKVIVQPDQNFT

Kd	koff	kon	Binder
1.91 nM	0.000381 s⁻¹	200000 M⁻¹ s⁻¹	B18
4.49 nM	0.000831 s⁻¹	185000 M⁻¹ s⁻¹	B19
6.43 nM	0.000855 s⁻¹	133000 M⁻¹ s⁻¹	B20
5.99 nM	0.00106 s⁻¹	176000 M⁻¹ s⁻¹	B21
6.59 nM	0.000789 s⁻¹	120000 M⁻¹ s⁻¹	B22
10.2 nM	0.0011 s⁻¹	108000 M⁻¹ s⁻¹	B23

Each binder was assayed against T5, human cMet-his (ECD, Met1-Thr932) (human, UniProt P08581 25-932) in the same assay as above.
T5 construct: Bought; range as printed includes Met1
T5 sequence (P08581 25-932): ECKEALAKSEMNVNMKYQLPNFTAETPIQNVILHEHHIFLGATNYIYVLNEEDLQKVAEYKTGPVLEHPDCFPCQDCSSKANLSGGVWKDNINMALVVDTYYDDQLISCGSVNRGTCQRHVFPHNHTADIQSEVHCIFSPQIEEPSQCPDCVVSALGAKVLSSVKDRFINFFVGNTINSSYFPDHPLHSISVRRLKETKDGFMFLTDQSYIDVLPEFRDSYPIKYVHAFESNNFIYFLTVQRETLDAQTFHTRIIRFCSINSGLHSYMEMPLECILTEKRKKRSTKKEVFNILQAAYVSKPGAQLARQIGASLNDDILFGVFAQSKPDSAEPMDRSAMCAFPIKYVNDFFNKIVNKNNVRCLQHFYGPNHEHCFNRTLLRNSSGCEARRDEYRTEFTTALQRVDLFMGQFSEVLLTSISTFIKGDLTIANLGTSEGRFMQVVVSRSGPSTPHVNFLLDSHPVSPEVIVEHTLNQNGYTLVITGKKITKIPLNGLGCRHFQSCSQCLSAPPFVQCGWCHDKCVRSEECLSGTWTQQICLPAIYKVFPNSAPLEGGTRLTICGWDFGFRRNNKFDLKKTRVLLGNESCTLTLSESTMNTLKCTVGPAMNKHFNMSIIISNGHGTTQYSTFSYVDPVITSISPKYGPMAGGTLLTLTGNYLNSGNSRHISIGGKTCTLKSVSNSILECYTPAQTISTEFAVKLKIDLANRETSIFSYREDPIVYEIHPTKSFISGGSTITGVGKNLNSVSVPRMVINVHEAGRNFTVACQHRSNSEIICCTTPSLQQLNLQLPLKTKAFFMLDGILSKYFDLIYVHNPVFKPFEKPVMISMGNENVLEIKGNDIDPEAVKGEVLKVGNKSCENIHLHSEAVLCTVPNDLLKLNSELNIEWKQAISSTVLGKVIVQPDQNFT

Kd	koff	kon	Binder
2.72 nM	0.000825 s⁻¹	304000 M⁻¹ s⁻¹	B18
6.61 nM	0.00125 s⁻¹	189000 M⁻¹ s⁻¹	B19
9.81 nM	0.00132 s⁻¹	135000 M⁻¹ s⁻¹	B20
8.61 nM	0.00158 s⁻¹	183000 M⁻¹ s⁻¹	B21
10.2 nM	0.00133 s⁻¹	130000 M⁻¹ s⁻¹	B22
14.4 nM	0.00167 s⁻¹	116000 M⁻¹ s⁻¹	B23
